Article PMC11459180, “Structural basis for adhesin secretion by the outer-membrane usher in type 1 pili” (Proceedings of the National Academy of Sciences of the …, 2024)

Columns and labels:
[1] = target: T1, adhesin FimH (wild type) (Escherichia coli, UniProt P08191 22-300); test: cryo-EM structure; FimD–FimCH complex, second class of particles in the same purified sample and dataset; ~3.5 Å; map fits PDB 3RFZ; settings: both partners purified
T1 construct: also called FimHWT; tip adhesin

[2] = target: T2, outer-membrane usher FimD (Escherichia coli, UniProt P30130 46-878); test: cryo-EM structure; settings: both partners purified
T2 sequence: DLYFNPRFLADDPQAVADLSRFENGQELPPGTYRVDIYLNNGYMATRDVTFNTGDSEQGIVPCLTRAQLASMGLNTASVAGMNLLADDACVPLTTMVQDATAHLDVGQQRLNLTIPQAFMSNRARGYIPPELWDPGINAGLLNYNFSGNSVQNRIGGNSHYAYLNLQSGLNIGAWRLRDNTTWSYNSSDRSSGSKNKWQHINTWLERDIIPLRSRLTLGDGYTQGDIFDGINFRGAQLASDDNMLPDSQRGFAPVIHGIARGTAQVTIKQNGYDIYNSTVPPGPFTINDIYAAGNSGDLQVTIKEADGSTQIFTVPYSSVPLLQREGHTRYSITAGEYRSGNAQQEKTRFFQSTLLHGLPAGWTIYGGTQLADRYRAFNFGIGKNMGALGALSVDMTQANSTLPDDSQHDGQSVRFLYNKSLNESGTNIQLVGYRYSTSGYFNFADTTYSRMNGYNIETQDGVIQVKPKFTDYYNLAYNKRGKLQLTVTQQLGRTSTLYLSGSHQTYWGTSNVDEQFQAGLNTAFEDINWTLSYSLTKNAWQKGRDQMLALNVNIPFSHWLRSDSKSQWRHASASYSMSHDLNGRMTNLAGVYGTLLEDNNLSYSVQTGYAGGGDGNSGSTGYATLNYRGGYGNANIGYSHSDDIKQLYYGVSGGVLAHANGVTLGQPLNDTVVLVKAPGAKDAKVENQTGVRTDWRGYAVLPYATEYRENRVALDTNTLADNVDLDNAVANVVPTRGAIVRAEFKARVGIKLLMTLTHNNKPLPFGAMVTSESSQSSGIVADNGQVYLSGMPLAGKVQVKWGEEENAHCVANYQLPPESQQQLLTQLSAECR

T1 sequence (P08191 22-300): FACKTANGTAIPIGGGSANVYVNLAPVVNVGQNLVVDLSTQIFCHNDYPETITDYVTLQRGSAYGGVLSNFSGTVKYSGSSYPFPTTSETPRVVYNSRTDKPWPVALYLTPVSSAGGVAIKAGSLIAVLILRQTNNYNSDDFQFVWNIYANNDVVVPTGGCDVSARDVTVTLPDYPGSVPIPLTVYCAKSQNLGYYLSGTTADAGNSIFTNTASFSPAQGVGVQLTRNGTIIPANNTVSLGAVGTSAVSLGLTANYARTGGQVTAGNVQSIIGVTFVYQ

B1: periplasmic chaperone FimC with a C-terminal polyhistidine tag (natural protein)
chain: GVALGATRVIYPAGQKQEQLAVTNNDENSTYLIQSWVENADGVKDGRFIVTPPLFAMKGKKENTLRILDATNNQLPQDRESLFWMNVKAIPSMDKSKLTENTLQLAIISRIKLYYRPAKLALPPDQAAEKLRFRRSANSLTLINPTPYYLTVTELNAGTRVLENALVPPMGESTVKLPSDAGSNITYRTINDYGALTPKMTGVME
notes: also called FimChis; FimCHis; not shown: polyhistidine, C-terminal, kept
- binding result [1]: binds
- binding result [2]: binds
